Tests used:
[1] = target: T1, IL-2Rβ/γ on M07e cells (human, UniProt P14784 27-551; P31785 23-369); experiment: cell-based or functional assay
T1 sequence (looked up) 1: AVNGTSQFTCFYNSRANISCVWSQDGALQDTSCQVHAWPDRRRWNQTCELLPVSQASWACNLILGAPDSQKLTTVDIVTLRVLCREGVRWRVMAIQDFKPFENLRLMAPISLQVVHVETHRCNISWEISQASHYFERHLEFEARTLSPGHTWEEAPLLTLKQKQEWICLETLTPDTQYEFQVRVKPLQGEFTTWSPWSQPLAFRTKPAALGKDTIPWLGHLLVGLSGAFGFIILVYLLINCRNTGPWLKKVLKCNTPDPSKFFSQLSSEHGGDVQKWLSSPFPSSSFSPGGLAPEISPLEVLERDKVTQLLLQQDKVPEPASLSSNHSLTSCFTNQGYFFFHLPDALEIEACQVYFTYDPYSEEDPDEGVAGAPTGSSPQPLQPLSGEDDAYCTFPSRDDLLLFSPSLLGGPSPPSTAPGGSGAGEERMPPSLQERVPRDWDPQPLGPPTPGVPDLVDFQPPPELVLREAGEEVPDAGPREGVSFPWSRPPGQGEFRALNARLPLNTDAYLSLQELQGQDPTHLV
T1 sequence (looked up) 2: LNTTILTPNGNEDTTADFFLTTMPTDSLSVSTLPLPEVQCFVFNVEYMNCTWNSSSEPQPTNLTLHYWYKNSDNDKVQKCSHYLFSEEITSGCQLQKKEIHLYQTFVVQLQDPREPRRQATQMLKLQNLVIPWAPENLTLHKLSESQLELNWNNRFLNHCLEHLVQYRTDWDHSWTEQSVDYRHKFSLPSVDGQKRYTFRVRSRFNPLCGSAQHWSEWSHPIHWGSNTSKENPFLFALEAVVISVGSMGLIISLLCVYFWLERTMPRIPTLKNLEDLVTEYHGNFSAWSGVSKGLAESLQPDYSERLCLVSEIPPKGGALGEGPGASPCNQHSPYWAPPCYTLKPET

[2] = target: T1, IL-2Rβ/γ on M07e cells; experiment: cell-based or functional assay; remark: listed apart in the source
[3] = target: T1, IL-2Rβ/γ on M07e cells; experiment: cell-based or functional assay; remark: listed apart in the source
[4] = tested on: CD4^+ T cells stimulated with the CD3 antibody; experiment: Proliferation experiment of T cells stimulated with a CD3 antibody (Ki-67, FACS); type: cell-based, human; settings: 4 days
Experimental: (§1) T cells stimulated with CD3 antibodies highly express PD-1. To determine whether the PD-1-IL-2v with different IL-2 mutants described above can activate T cells among human peripheral blood mononuclear cells (PBMCs) that lowly express PD-1 and highly express PD-1, T cells were isolated from PBMCs and stimulated with a CD3 antibody. The effects of the fusion proteins described above on the proliferation of unstimulated and stimulated T cells were assessed. Proliferation experiment of T cells stimulated with a CD3 antibody: After frozen human PBMCs were thawed, T cells were obtained by isolation using a Pan T Cell Isolation Kit (Miltenyi, 130-096-535). The CD3 antibody was diluted with PBS to 0.1 µg/mL and added to a 10 cm culture dish. The dish was coated at 37 °C for 2 h and washed with PBS for later use. The T cells were plated at 2 × 10^6 cells/mL onto the 10 cm culture dish precoated with the CD3 antibody and stimulated at 37 °C with 5% CO2 for 24 h. The stimulated T cells were collected, washed, and counted, and the cell density was adjusted to 5 × 10^5 cells/mL. The cells were plated at 200 µL/well onto a 96-well plate. The test samples were serially diluted with culture medium to prepare 5× working solutions, and 50 µL of each concentration of the test samples was added to the stimulated T cells and mixed well. The plate was incubated for 4 days. After the drug treatment, the cells were washed twice with FACS buffer (PBS + 2% FBS), and dead cells were labeled with Fixable Viability Dye (eBioscience, 65-0865-14). After flow cytometry antibody staining with CD3 (BD, 565491), CD4 (BD, 558116), CD8 (BD, 565310), Ki-67 (eBioscience, 12-5698-82)), cell proliferation was examined by FACS.

[5] = tested on: CD8^+ T cells stimulated with the CD3 antibody; experiment: as above; type: cell-based, human; settings: 4 days
Experimental: as §1

[6] = tested on: unstimulated CD4^+ T cells; experiment: Unstimulated T cell proliferation experiment (Ki-67, FACS); type: cell-based, human; settings: 4 days
Experimental: (§2) T cells stimulated with CD3 antibodies highly express PD-1. To determine whether the PD-1-IL-2v with different IL-2 mutants described above can activate T cells among human peripheral blood mononuclear cells (PBMCs) that lowly express PD-1 and highly express PD-1, T cells were isolated from PBMCs and stimulated with a CD3 antibody. The effects of the fusion proteins described above on the proliferation of unstimulated and stimulated T cells were assessed. Unstimulated T cell proliferation experiment: The isolated T cells were counted and then plated at 5 × 10^5 cells/mL onto a 96-well plate at 200 µL/well. The test samples were serially diluted with culture medium to prepare 5× working solutions, and 50 µL of each concentration of the test samples was added to the stimulated T cells and mixed well. The plate was incubated for 4 days. After the drug treatment, the cells were washed twice with FACS buffer, and dead cells were labeled with FVD780. After flow cytometry antibody staining, cell proliferation was examined by FACS.

[7] = tested on: unstimulated CD8^+ T cells; experiment: as above; type: cell-based, human; settings: 4 days
Experimental: as §2

B1: PEGylated IL-2 mutant (PEG-IL-2v) (ligand)
chain: APASSSTKKTQLQLEHLLLDLQMILQGISNYKNPKLTRMLTAKFYMPKKATELKHLQCLEEELKPLEEVLQGAQSKNFHLRPRDLISNINVIVLELKGSETTFMCEYADETATIVEFLNRWITFAQSIISTLT
modifications: PEGylated (site not stated)
M07e cell proliferation activity (%) at 0.46 nM [1]: 0.7%
M07e cell proliferation activity (%) at 1.4 nM [1]: 2.6%
M07e cell proliferation activity (%) at 4.1 nM [1]: 11.2%
M07e cell proliferation activity (%) at 12 nM [1]: 34.2%
M07e cell proliferation activity (%) at 37 nM [1]: 68.2%
M07e cell proliferation activity (%) at 111 nM [1]: 88.3%
M07e cell proliferation activity (%) at 333 nM [1]: 102%
M07e cell proliferation activity (%) at 1000 nM [1]: 89%
M07e-hPD-1 cell proliferation activity (%) at 0.0001 nM [1]: 1.9%
M07e-hPD-1 cell proliferation activity (%) at 0.001 nM [1]: 1.1%
M07e-hPD-1 cell proliferation activity (%) at 0.01 nM [1]: 0.5%
M07e-hPD-1 cell proliferation activity (%) at 0.1 nM [1]: 0.4%
M07e-hPD-1 cell proliferation activity (%) at 1 nM [1]: 3.3%
M07e-hPD-1 cell proliferation activity (%) at 10 nM [1]: 33.3%
M07e-hPD-1 cell proliferation activity (%) at 100 nM [1]: 104%
M07e-hPD-1 cell proliferation activity (%) at 1000 nM [1]: 100%
M07e proliferation, EC50 [2]: 20.9 nM
M07e proliferation, Maximal fluorescence value (Max Lum) [2]: 4.45e+06 Lum
M07e-hPD1 proliferation, EC50 [2]: 13.3 nM
M07e-hPD1 proliferation, Maximal fluorescence value (Max Lum) [2]: 7.94e+06 Lum
M07e-hPD-1 cell proliferation ratio (%) at 0.0001 nM [3]: -2.2%
M07e-hPD-1 cell proliferation ratio (%) at 0.001 nM [3]: -2.1%
M07e-hPD-1 cell proliferation ratio (%) at 0.01 nM [3]: -2.6%
M07e-hPD-1 cell proliferation ratio (%) at 0.1 nM [3]: -2.2%
M07e-hPD-1 cell proliferation ratio (%) at 1 nM [3]: -0.6%
M07e-hPD-1 cell proliferation ratio (%) at 10 nM [3]: 24.4%
M07e-hPD-1 cell proliferation ratio (%) at 100 nM [3]: 76.7%
M07e-hPD-1 cell proliferation ratio (%) at 1000 nM [3]: 89.1%

B2: PEG-IL-2v (conjugate)
chain: B1 chain
CD4^+ Ki67^+ cells (%) ([4]; 0.001 nM): 32.9%
CD4^+ Ki67^+ cells (%) ([4]; 0.01 nM): 34.8%
CD4^+ Ki67^+ cells (%) ([4]; 0.1 nM): 43.3%
CD4^+ Ki67^+ cells (%) ([4]; 1 nM): 63%
CD4^+ Ki67^+ cells (%) ([4]; 10 nM): 73%
CD4^+ Ki67^+ cells (%) ([4]; 100 nM): 74.7%
CD8^+ Ki67^+ cells (%) ([5]; 0.001 nM): 55.5%
CD8^+ Ki67^+ cells (%) ([5]; 0.01 nM): 55.5%
CD8^+ Ki67^+ cells (%) ([5]; 0.1 nM): 67.1%
CD8^+ Ki67^+ cells (%) ([5]; 1 nM): 76.6%
CD8^+ Ki67^+ cells (%) ([5]; 10 nM): 82%
CD8^+ Ki67^+ cells (%) ([5]; 100 nM): 82.5%
CD4^+ Ki67^+ cells (%) ([6]; 0.001 nM): 0.29%
CD4^+ Ki67^+ cells (%) ([6]; 0.01 nM): 1.51%
CD4^+ Ki67^+ cells (%) ([6]; 0.1 nM): 1.38%
CD4^+ Ki67^+ cells (%) ([6]; 1 nM): 1.77%
CD4^+ Ki67^+ cells (%) ([6]; 10 nM): 10.2%
CD4^+ Ki67^+ cells (%) ([6]; 100 nM): 45%
CD8^+ Ki67^+ cells (%) ([7]; 0.001 nM): 0.22%
CD8^+ Ki67^+ cells (%) ([7]; 0.01 nM): 0.59%
CD8^+ Ki67^+ cells (%) ([7]; 0.1 nM): 0.29%
CD8^+ Ki67^+ cells (%) ([7]; 1 nM): 1.54%
CD8^+ Ki67^+ cells (%) ([7]; 10 nM): 43%
CD8^+ Ki67^+ cells (%) ([7]; 100 nM): 87.3%
